Laboratory results: the Immune Epitope Database (IEDB)

Key:
HLA-A*02:06 = test: IEDB peptide-MHC binding, purified MHC/competitive/radioactivity; filed as Kd, often an IC50 or EC50 that approximates it; ≥ and ≤ were set here for values at or beyond the usual limits of such assays
HLA-A*02:02 = test: as above
HLA-A*02:03 = test: as above
HLA-A*01:01 = test: as above; details: source organism: Dengue virus 4 Philippines/H241/1956
HLA-A*30:02 = test: as above
HLA-A*69:01 = test: IEDB peptide-MHC binding, purified MHC/direct/fluorescence; filed as Kd, often an IC50 or EC50 that approximates it; ≥ and ≤ were set here for values at or beyond the usual limits of such assays
HLA-A*02:01 = test: as above
HLA-A*23:01 = test: IEDB peptide-MHC binding, purified MHC/competitive/radioactivity; filed as Kd, often an IC50 or EC50 that approximates it; ≥ and ≤ were set here for values at or beyond the usual limits of such assays
HLA-A*24:02 = test: as above
[1] = source organism: Vaccinia virus WR
[2] = source organism: Vibrio vulnificus YJ016
[3] = source organism: Dengue virus 2 Jamaica/1409/1983
[4] = source organism: Mammarenavirus tacaribeense
[5] = source organism: SARS coronavirus Tor2
[6] = source organism: Dengue virus 3 Sri Lanka/1266/2000
[7] = source organism: Dengue virus 4 Philippines/H241/1956
[8] = source organism: Salmonella enterica subsp. enterica serovar Typhimurium
[9] = source organism: Lymphocytic choriomeningitis virus (strain Armstrong)

Sequence | Kd (HLA-A*02:06; [1]) [nM] | Kd (HLA-A*02:02; [1]) [nM] | Kd (HLA-A*02:03; [1]) [nM] | further results
GINNVQSLI | 1730 | 474 | 378 | –
HTYHLENDKI | 1990 | 1790 | 13700 | –
PTEMVDVSMM | 12100 | 11500 | ≥ 70400 | –
TSETFSMGLL | – | – | – | Kd (HLA-A*01:01): 242 nM
SKIPGGAMY | – | – | – | Kd (HLA-A*30:02; source organism: Dengue virus 3 Martinique/1243/1999): 365 nM
ELIDVLKTRL | 1990 | 262 | 118 | –
IMDKEQLLKI | 1340 | 311 | 288 | –
DTMRIYCSL | 2920 | 5840 | 5460 | –
MIHKTYIDV | 126 | 1400 | 15.2 | –
ASEAVNDSRF | – | – | – | Kd (HLA-A*01:01): ≥ 31400 nM
ITHTNITTLL | 14800 | 1690 | 101 | –
KLTLKGMSY | – | – | – | Kd (HLA-A*30:02; source organism: Dengue virus 1 Singapore/S275/1990): 521 nM
TIVSRSSRGV | 3740 | 4700 | 11.1 | –
RQLQREGLV | – | – | – | Kd (HLA-A*69:01; [2]): ≥ 20000 nM; Kd (HLA-A*02:01; [2]): ≥ 5000 nM
IGNENYLDY | – | – | – | Kd (HLA-A*30:02; source organism: Dengue virus 1 Brazil/97-11/1997): 956 nM
AWLVHRQWFL | – | – | – | Kd (HLA-A*23:01; [3]): 97.7 nM
IVFGIYKDNL | 47.8 | 187 | 792 | –
MLLNVQTLI | 0.219 | 0.169 | 0.25 | –
IYKAPSENW | – | – | – | Kd (HLA-A*24:02; source organism: Homo sapiens): 39 nM
YNCKCCWFA | – | – | – | Kd (HLA-A*02:06; [4]): ≥ 77000 nM; Kd (HLA-A*02:02; [4]): 16000 nM; Kd (HLA-A*02:03; [4]): ≥ 31800 nM
CWCNSTSTW | – | – | – | Kd (HLA-A*24:02; [3]): 1250 nM; Kd (HLA-A*23:01; [3]): 998 nM
ELTTVFIKYV | 463 | 2790 | 719 | –
IVNSVLLFL | – | – | – | Kd (HLA-A*02:06; [5]): 30.5 nM; Kd (HLA-A*02:02; [5]): 7.06 nM; Kd (HLA-A*02:03; [5]): 179 nM
KLLSTSNVIT | 1550 | 2260 | 3350 | –

Sequence | Kd (HLA-A*02:06; [1]) [nM] | Kd (HLA-A*02:02; [1]) [nM] | Kd (HLA-A*02:03; [1]) [nM] | further results
IASILSLET | 318 | 3670 | 7480 | –
NAILHNIYRL | 576 | 5610 | 10200 | –
KVTGSYNLV | 193 | 66.3 | 43.1 | –
SMWALVISV | – | – | – | Kd (HLA-A*02:06; [5]): 0.793 nM; Kd (HLA-A*02:02; [5]): 6.12 nM; Kd (HLA-A*02:03; [5]): 4.43 nM
TYQLWTALV | – | – | – | Kd (HLA-A*24:02; [6]): 48.3 nM; Kd (HLA-A*23:01; [6]): 58.3 nM
IQKDINITHT | ≥ 61700 | 1360 | 340 | –
KTVKNVDII | 698 | 607 | 1790 | –
GYATQTVGPW | – | – | – | Kd (HLA-A*24:02; [7]): 1290 nM; Kd (HLA-A*23:01; [7]): 549 nM
KILSDENYLL | 15.6 | 25.2 | 3770 | –
YKTWAYHGSY | – | – | – | Kd (HLA-A*30:02; [3]): 4220 nM
TVDFTDCRTI | 10600 | ≥ 31800 | 10400 | –
FVATFRDML | 487 | 2350 | 206 | –
NQLDSSNKSM | 635 | 1780 | ≥ 30000 | –
ETIQKDINIT | 112 | 354 | 10.1 | –
KIEDLINQLV | 145 | 87 | 70.8 | –
FLDWIKDIM | 162 | 0.78 | 297 | –
LISFFGLFDI | 171 | 75.9 | 108 | –
YMVTDKTAYI | 6.12 | 0.225 | 0.277 | –
FAHELEMLC | – | – | – | Kd (HLA-A*69:01; [8]): 720 nM; Kd (HLA-A*02:01; [8]): 1170 nM
ALMDCIIFES | – | – | – | Kd (HLA-A*02:06; [9]): 12.8 nM; Kd (HLA-A*02:02; [9]): 2.13 nM; Kd (HLA-A*02:03; [9]): 16.4 nM
ALDGVLSTFV | – | – | – | Kd (HLA-A*02:06; [5]): 140 nM; Kd (HLA-A*02:02; [5]): 3.26 nM; Kd (HLA-A*02:03; [5]): 27.9 nM
PASISSVLTI | 1550 | 1360 | 83.3 | –
ILFQNNDINA | 3180 | 23.3 | 407 | –
ALVLLILMTA | – | – | – | Kd (HLA-A*02:06; [5]): 61.4 nM; Kd (HLA-A*02:02; [5]): 67.2 nM; Kd (HLA-A*02:03; [5]): 50.7 nM
